Data as given in US20230137032A1 (GlaxoSmithKline, published 2023).
Where “and” joins values, the source holds several entries; their conditions need not be identical. Equal values may be shown once.

What was measured:
[1] = biological target: T1, human BCMA expressed on cells (human, UniProt Q02223 1-184); experiment: FMAT cell binding on HEK293 cells transfected with human BCMA, anti-human IgG FMAT Blue detection
T1 construct: whole, on cells; also called human BCMA HEK293; ARH77-hBCMA 10B5 BCMA expressing transfectant cells
T1 sequence (looked up): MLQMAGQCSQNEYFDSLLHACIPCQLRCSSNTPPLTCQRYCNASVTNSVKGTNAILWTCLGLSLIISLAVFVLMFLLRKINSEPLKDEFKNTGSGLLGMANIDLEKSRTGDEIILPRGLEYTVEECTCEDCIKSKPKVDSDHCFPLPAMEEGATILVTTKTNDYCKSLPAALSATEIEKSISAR
Description: Cryopreserved transfected human, cyno BCMA and mock transfected HEK293 cells were recovered from LN2 storage. […] The assay plates were left for a minimum of 90 minutes before the result was read on the ABI8200 (FMAT) plate reader.

[2] = biological target: T2, recombinant human BCMA, in house material (human, UniProt Q02223 4-53, limits assumed); experiment: ProteOn SPR run 1, antibody captured on Protein A, 25C; Run 1 (Table 8)
T2 construct: also called Human in house BCMA; In house human BCMA
Description: The initial screen of CA8 chimeric and humanised variants was carried out on the ProteOn XPR36 (Biorad). The method was as follows; Protein A was immobilised on a GLC chip (Biorad, Cat No: 176-5011) by primary amine coupling, CA8 variants were then captured on this surface and recombinant human BCMA (in house or commercial US Biological, B0410) materials (run 2 only)) passed over at 256, 64, 16, 4, 1 nM with a 0 nM injection (i.e. buffer alone) used to double reference the binding curves, the buffer used is the HBS-EP buffer. 50 mM NaOH was used to regenerate the capture surface. The data was fitted to the 1:1 model using the analysis software inherent to the ProteOn XPR36. […] Both runs were carried out at 25° C.

[3] = biological target: T1, human BCMA expressed on cells; experiment: cell-based or functional assay
[4] = biological target: T1, human BCMA expressed on cells; experiment: FACS on JJN-3 cells, PE anti-human IgG, MFI
Description: (§1) Cells were then washed with FACS buffer (PBS+0.5% BSA+0.1% sodium azide) to remove unbound antibody. Cells were incubated with a secondary PE labelled anti-human IgG antibody for 15 minutes at RT and then washed with FACS buffer to remove unbound antibody. Cells were analysed by FACS and mean fluorescence intensity (MFI) values measured to determine binding.

[5] = biological target: T3, recombinant human BCMA, commercial (US Biological, B0410) (human, UniProt Q02223 5-54, limits assumed); experiment: Biacore T100, antibody captured on Protein A, 25C, experiment 1
T3 construct: also called commercial human BCMA; Human commercial BCMA
T3 chain (looked up): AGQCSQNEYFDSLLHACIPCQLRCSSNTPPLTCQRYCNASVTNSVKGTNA
Description: Protein A was immobilised on a CMS chip (GE Healthcare, Cat No: BR-1005-30) by primary amine coupling and this surface was then used to capture the antibody molecules. Recombinant human BCMA (US Biological, B0410) was used as analyte at 256 nM, 64 nM, 16 nM, 4 nM and 1 nM. Regeneration of the capture surface was carried out using 50 mM NaOH. All binding curves were double referenced with a buffer injection (i.e. 0 nM) the data was fitted to the using the 1:1 model inherent to T100 evaluation software. The run was carried out at 25° C. and 37° C. for experiment 1 and only 37° C. for experiment 2 using HBS-EP as the running buffer.

cyno BCMA-Fc = biological target: T4, cyno BCMA-Fc (cyno); experiment: ELISA on coated cyno BCMA-Fc, anti-human IgG HRP, TMB
T4 construct: also called Cyno BCMA CD33 cyno BCMA ECD (4-52) TEV-Fc; recombinant cyno BCMA
Description: Human BCMA-Fc and cyno BCMA-Fc were coated to ELISA plates and the plates were blocked using BSA to reduce non specific binding. CA8 chimeric antibodies were added in a concentration range from 5 ug/ml to 0.1 ug/ml to the human and cyno BCMA coated ELISA plates. […] HRP substrate (TMB) was added to develop the ELISA.

[6] = biological target: T1, human BCMA expressed on cells; experiment: FACS on U266 cells, PE anti-human IgG, MFI
Description: as §1

[7] = biological target: T5, recombinant human BCMA Fc 4-53 (human); experiment: ELISA, neutralisation of ligand binding to plate-coated BCMA Fc 4-53; competitor APRIL; competitor APRIL
T5 construct: also called Human BCMA CD33-hBCMA ECD (4-53) TEV-Fc; recombinant BCMA
Description: 96 well flat bottomed plates were coated overnight with 1 μg/mL solution of recombinant human BCMA Fc 4-53 in PBS. Following a wash step using 0.05% TWEEN20, plates were blocked with 2% Bovine Serum Albumin solution in PBS for 1 hour at room temperature. […] 40 μL of 2% BSA was added to the relevant control wells. […] Equivalent volume of 2% BSA was added to the relevant control wells. Plates were allowed to incubate for 2 hours at room temperature, after which they were washed as before. […] Following a wash step, 50 µL of a 1:4000 dilution of Streptavidin-HRP (Amersham RPN4401) was added to each well and incubated for 30 minutes at room temperature. The wash process was repeated again followed by the addition of […] of Tetramethylbenzidine substrate solution (T8665, Sigma) into each well. Plates were incubated for 20-25 minutes at room temperature, wrapped in foil. The reaction was stopped with the addition of […] of 1M H₂SO₄. Optical density was determined at 450 nm using Spectromax reader.

B1: CA8 chimera antibody (human chimeric CA8) (antibody, V domains shown)
VH: EVQLQQSGAVLARPGASVKMSCKGSGYTFTNYWMHWVKQRPGQGLEWIGATYRGHSDTYYNQKFKGKAKLTAVTSTSTAYMELSSLTNEDSAVYYCTRGAIYNGYDVLDNWGQGTLVTVSS
VL: DIQLTQTTSSLSASLGDRVTISCSASQDISNYLNWYQQKPDGTVELVIYYTSNLHSGVPSRFSGSGSGTDYSLTIGYLEPEDVATYYCQQYRKLPWTFGGGSKLEIKR
notes: also called Chimera CA8; CA8 chimeric antibody
For B1, the “EC50 (read off the curve)” value [1] was ~0.4 µg/mL, the Kd [2] was 0.519 nM and the “APRIL induced IC50 (phosphorylated NFkappaB in H-929 cells, MSD assay)” value [3] was 38.5 ug/ml and 257 nM. For the same binder, the “BAFF induced IC50 (phosphorylated NFkappaB in H-929 cells, MSD assay)” value [3] was 1.5 ug/ml and 10 nM, the “EC50 (read off the curve)” value [4] was ~0.2 µg/mL and the Kd [5] was 0.14 nM. For the same binder, the binding result (cyno BCMA-Fc) was “binds”, the “EC50 (read off the curve)” value [6] was ~0.3 µg/mL and the EC50 [7] was 0.773 µg/mL.
